Results taken from paper PMC12361432.
Positions count from the first letter of the chain named. Names and notes keep the numbering of the source. Each block holds one molecule with its values, some of them ahead of it.

How the values were obtained:
CCR9 F299A (human) = assay: flow cytometry on cells; TAMRA-labeled chemokine (four concentrations, highest 300 nM used to compare mutants) incubated 1 h with HEK293T cells expressing WT or mutant CCR9 in FACS buffer (1x PBS, 1 mM EDTA, 1% BSA); median fluorescence; nonspecific binding on parental HEK293T cells; binding ratios mutant:WT
CCR9 Y126A (human) = assay: as above
[1] = target: T1, TAMRA-labeled CCL25 (CCL25(1-73), norleucine 64, C-terminal azidolysine coupled to TAMRA-PEG4-DBCO); assay: flow cytometry on cells; conditions: chain shown with the change; 300 nM TAMRA-CCL25; HEK293T cells; read off a plot
T1 chain: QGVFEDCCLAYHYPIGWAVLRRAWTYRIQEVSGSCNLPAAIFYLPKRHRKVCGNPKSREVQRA

Molecule: TAMRA-labeled CCL25 (CCL25(1-73), norleucine 64, C-terminal azidolysine coupled to TAMRA-PEG4-DBCO) (ligand)
CCL25-induced Ca^2+ mobilization in HEK293T cells expressing the CCR9 mutant, area under the concentration-response curve against WT (CCL25 without dye) (CCR9 K211A (human)): < 15%
CCL25-induced Ca^2+ mobilization in HEK293T cells expressing the CCR9 mutant, area under the concentration-response curve against WT (CCL25 without dye) (CCR9 K40A (human)): < 15%
CCL25-induced Ca^2+ mobilization in HEK293T cells expressing the CCR9 mutant, area under the concentration-response curve against WT (CCL25 without dye) (CCR9 R44A (human)): < 15%
CCL25-induced Ca^2+ mobilization in HEK293T cells expressing the CCR9 mutant, area under the concentration-response curve against WT (CCL25 without dye) (CCR9 Y202A (human)): < 15%
CCL25-induced Ca^2+ response in HEK293T cells expressing the CCR9 mutant, percent of WT output (CCL25 without dye) (CCR9 D296A (human)): 15%
CCL25-induced Ca^2+ response in HEK293T cells expressing the CCR9 mutant, percent of WT output (CCL25 without dye) (CCR9 S292A (human)): 48%
fold change in binding against WT CCR9 (CCR9 F299A (human)): 2.2 fold
fold change in binding against WT CCR9 (CCR9 Y126A (human)): 2.5 fold

B1: C-C chemokine receptor 9 (CCR9), wild type Y202A (protein)
chain: MTPTDFTSPIPNMADDYGSESTSSMEDYVNFNFTDFYCEKNNVRQFASHFLPPLYWLVFIVGALGNSLVILVYWYCTRVKTMTDMFLLNLAIADLLFLVTLPFWAIAAADQWKFQTFMCKVVNSMYKMNFYSCVLLIMCISVDRYIAIAQAMRAHTWREKRLLYSKMVCFTIWVLAAALCIPEILYSQIKEESGIAICTMVAPSDESTKLKSAVLTLKVILGFFLPFVVMACCYTIIIHTLIQAKKSSKHKALKVTITVLTVFVLSQFPYNCILLVQTIDAYAMFISNCAVSTNIDICFQVTQTIAFFHSCLNPVLYVFVGERFRRDLVKTLKNLGCISQAQWVSFTRREGSLKLSSMLLETTSGALSL
ratio to parent [1]: 0.73

B2: C-C chemokine receptor 9 (CCR9), wild type K40A (protein)
chain: B1 chain with K40A, A202Y
ratio to parent [1]: 0.83

B5: C-C chemokine receptor 9 (CCR9), wild type S292A (protein)
chain: B1 chain with A202Y, S292A
ratio to parent [1]: 0.66

Now from value to molecule:

ratio to parent [1]: 1.1
B3: C-C chemokine receptor 9 (CCR9), wild type K211A (protein)
chain: B1 chain with A202Y, K211A

ratio to parent [1]: 0.81
B4: C-C chemokine receptor 9 (CCR9), wild type D296A (protein)
chain: B1 chain with A202Y, D296A

ratio to parent [1]: 0.61
B6: C-C chemokine receptor 9 (CCR9), wild type R44A (protein)
chain: B1 chain with R44A, A202Y
